Experimental findings from the supplement of paper PMC12636428 are described below.

For this series, the system named is Saccharomyces cerevisiae. The experiment in a line: transcriptional activation domain activity (GFP:mCherry ratio, weighted mean of sorted bins, harmonized to initial dataset scale) (arbitrary fluorescence ratio units); higher = stronger transcriptional activation. To be noted: beta-estradiol 1 µM; induction time 4 h. The essentials:
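The activation activity of each tile is the read-weighted mean of bin median fluorescence, averaged across its barcodes and mapped linearly onto the scale of the initial dataset. Tiles were fused to an estradiol-inducible synthetic transcription factor, barcoded, and integrated at URA3 in yeast diploids carrying a GFP reporter. Induction used 1 uM beta-estradiol in SC for 4 hours at 30 °C, after which cells were sorted into 8 GFP:mCherry bins, and any tile with fewer than 50 reads was dropped.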
In the case of “MLLFYILLSFSISSFFVCSLSNMLFFYMHHLIYMLTIFFYLLFNPITPILFFV”, the “transcriptional activation domain activity” value amounted to 51300.

“TNPAAAVAAAVAAKKTDTEEETTPKEDKAEEAKPEEEKKEEKKEEKAAAKSRS”: the “transcriptional activation domain activity” value amounted to 33900. Under “TLPGGTTGEFGRDRPTTNAFGSSTGAFGAPAANNNPFGAPAQPAGAFGQPSAL” stands 44800; under “MLIIGRIARWYIHPIAIVWFYLLHVSHFLYFLLVAEFQPRYIHVYLYLYLLST”, 47400; under “IRDRFNHGPCKVYILFMNCTYLPMIPGLFRIIEILRYYLRLRWLRCCSAAGPD”, 60300.

For the sequence “TLYWSYGMYIMYNGPHWLNTSYYWIDYPHILISRQTKTYYLMQLAFWVQQVYT”, the “transcriptional activation domain activity” value amounted to 41600. Next, “MWLVVCIDGPVLSVLPRTILYLCVLLLLTLLASCSERSFAFARPLSSSCIFSY”: 42600. For “LLEMGLRWTLDAFGDSARMAGHIFHCLSNLEMTLPSYMYIQLLRSILKLPKTV”, the “transcriptional activation domain activity” value stood at 31000.

Regarding “VPSDSRRCRLKGVTVFTWWRNVFRQALRHQRWICLQYITSFEREWRSVLAIVR”, the “transcriptional activation domain activity” value is 44800. Under “DEDDDDDDNDDADADDEPARRPKKSKSSQKSRSKKPAAKRAKVNGTTPAAAHS” stands 20000; under “PQQAQAQKEPKKPKPPPPPAAPPGPPPPPRAPPPPPPPPPPPPGGGGAPPPPA”, 27600; under “EREVRDEERTRRNREKRNRKKGKGGKGGKEDGGAGGGGGGGNVKARVGMVGDG”, 15100. Next, “HFILLHCNQLKNWFNNNQITWVIPKIGKCSHKIQVVSSHVLRAVHLFSQKYYL”: 58700.

As to “MNGDRDSGRSRDHYSSRGDRDDRRDRDRDRRRRSRSPGHRSSRRDYEVDTYSS”, the “transcriptional activation domain activity” value was 45700. With “EEAFVAINLRNLLTFGLTYFINDWILDDGVLFVFCILGMLFLVVCLMTIPLWI”, the “transcriptional activation domain activity” value amounted to 29000.

On to “MYGNLTYTEWSRYLADMLSMQKLLFVSVEANCRERILLLRISGRCPQLCPLWA”, for which the “transcriptional activation domain activity” value was determined as 47200. For “MVIWRDTLLITLHGLCGGILLRFPSAVNLFHCFIDINSPIGITILTLFVLHLC”, the “transcriptional activation domain activity” value came out at 70200. Under “RSSLSSPPCPRSRRRMRVRSSTTTSTSPPARSSSADRTRPTSTTTAARPPACP” stands 22000; under “VCFMGVLIGLLPGTWLCYGSDVCVKGLSSSIISMQLGLLGSLLLILKLVIGVA”, 61700. As for “MVLINIPNFLFSLFFFLFSFFSLLPFFTYLTFLSSSSLLLSTFCCSLASSPCM”, the “transcriptional activation domain activity” value turned out to be 50000. Turning to “PTGESLLDAYWKTLLGGITYGDPNGMEALFWDWYQGILPFRMLQLFHLDRVWF”, the “transcriptional activation domain activity” value was 48500. Under “ISCAVSACIVCVINCAVTVWASVNNKANKGVLFEGDCEKVRQMNTGLHLLINL” stands 66400; under “MQSGHLFRLFGIAKTVLFFFSSVSCSLLHFLFSSFPFPIFPFVLSICYVFHFF”, 46600. Under “LVYNDCMYIIFHLHMFEYRYGKQLAKTLLYWTYAHTHFCQLVQVESALRQVIQ” stands 48100; under “IYAYRESWGIDGAVFCKSWMLYWLLMDIHWQVMETLIACYIPMQFSPFFVFPW”, 61700. Next, “EKEAVVKDTASSTRAKTTRSKPKAAPAAAEPPKTATRGRGAAKLAADKPAPKT”: 23400; “LYSVCSILLLVVRLFKQLPRQYCSWRVVYTQKLWISITICFTLMRFSFSRDHT”: 51100. Turning to “VILLPLSFSLWYCLLFAYGILVSLYLLTLKNPTEINFLGFYIWKYENAFWVLM”, the “transcriptional activation domain activity” value stood at 60100.

In the case of “EVSIDGVQTVTYCGRDALPEHDKVTEVGWVLDRGILKLGVLYLWLNCRHMCVT”, the “transcriptional activation domain activity” value turned out to be 65400. “RDNESYSATNNNNLLRPDDNDYNNEALSDIDRSFEDIINGRKLKLKKSRRRSS”: the “transcriptional activation domain activity” value was found to be 15300. Under “RGERGQGAGGRGEGEGRGAGGERERRGGEREEGRGRERDERQGGKRERERGQG” stands 21800; under “LVGLIGTLVAEPGLGADRFLLCFLFLSYYTLLTPSNLLVGIFWLVFFVLQLGY”, 39700. In the case of “RLWLVRGPFTELFRRFLFSNIRFTSKVTIISYIGTYYAIGAAWIMTTANYLAI”, the “transcriptional activation domain activity” value was determined as 47600. As to “ADNNDDEDQDEEEATPAPKPRGGRAPKAAAAATKKSAAAKKAPATRGRKKIIE”, the “transcriptional activation domain activity” value stood at 33500. Under “LRGGYTCQLNGTPKNPDLQVWLQLNLIAYFSFLDTRACDGKTASITGSAEMPF” stands 51900. As for “MAGAVPVLMLILLQLSHLCTAFKFYSESGFALVRKILLTALPTFEPHHYQMDG”, the “transcriptional activation domain activity” value was determined as 64300.

Turning to “TGGAGATRTSKAKADRHVTQAGHRRLRAQAACERCRRRKLKCEPSGASCVACV”, the “transcriptional activation domain activity” value worked out at 48800. Under “WKPDIYTCVMRMLLDRLHSALGSLHARSIIRKIRILVALAGNVAYRGYPLQMT” stands 48900; under “KLGVCLLLILDSLHTTFCIYAMYWYLVINFGVFPELAMMHWSFEAQQMLNVLV”, 37800; under “MCIFFCPVSSLEVIWSVFLVFFYGYIFFTFFFLQCRSMVLIIPFLFTLVFHIF”, 42700. Regarding “FFHVTIRCASQGCGIAFGILGFQNTNVFLAYLILGAEGYFTLVLCVFRFLISW”, the “transcriptional activation domain activity” value was found to be 73400. As for “MGFEVIFFFLLLGFFIQLLFILLIILLFLLFLVFLLFCYFVILFRLCACMMLY”, the “transcriptional activation domain activity” value turned out to be 47900. Under “MVVIWGLDLKEMQWWKFKGSYMFNQTYHLRRTKMIVYQIAMIFMVCSESVGTA” stands 31600; under “IQVRLTAFDCLFVLKGLTESTLTQYFLSVIRDDPCVYVSHYVARAMLAWLGLA”, 55600; under “DDGESKEKRSRREKSAASEDESRKRSKSRSKSKSKTPSGNDESSNEDTSAGAD”, 18600. Under “APDQPLTTQGKPRTRVYVACIQCRSRKIRCDGAKPVCHNCSHRASSAVGGVLE” stands 18000; under “FIVVLLTMEVIIHYLYMVAIFHVKPDWSQFTAAQLSMMGFLNLKHIWLKLLIP”, 39000. “QLYCILNPPHLFVFPPKEISSVLFLVGVVHYVLYGLYYMLLLYNLFRFGLLTY”: the “transcriptional activation domain activity” value worked out at 45700.

For the sequence “APSDTNGNGKRKQTKSRNGCTTCKAKRLKCDETKPHCKQCARRSVQCGGYRKE”, the “transcriptional activation domain activity” value was 39400.

On to “PVKKLYLLVQYIQDLGRVCGIPVSPLCCVQALQAKLGPIAQACVSARIWARWR”, for which the “transcriptional activation domain activity” value was 67400.

Turning to “DGKTFDQLLRLKRLLVMHKGNLQSMWCVALMLELWHTKWTELSRLIQQHWGTG”, the “transcriptional activation domain activity” value is 74200. “YADMLMRIWSVWEFALWQYVSNEEFMGLLGFSRLRFRRMYLLVNNGCLFWRIF”: the “transcriptional activation domain activity” value was 72400.

For “MQIQALAFPSYCQNTLFMPCTSIVCLDFFFLLHIFPLVPRSLDVFFLFLLVHL”, the “transcriptional activation domain activity” value amounted to 76400.

In the case of “MPPQSRQSRMPEAPAEPRSARGRVTKRRSGNACVRCRRQKIKCSGSHPCEACS”, the “transcriptional activation domain activity” value amounted to 24800. As for “SWRRLPLAMLNFSRAVTFRWTIIIARTYSLNLADVLLTGMYITILFTWNFHNS”, the “transcriptional activation domain activity” value amounted to 40000. Under “MPRPKRPGAPEAKTRSRKGCWPCKARKVKCGEEKPACSNCSRQGVICDYSIRL” stands 34600. Under “VRRVLLMVPDWFIIFGYRWYRALGLLKTVCPWWTSIINSSSVFYSMLWVDPSV” stands 90900.

Turning to “YTNVYRCIKDEVYLLLSRLSLNWRKQDDYIWLLNLWTIWAAPWRLGNVPIISG”, the “transcriptional activation domain activity” value turned out to be 53500. Under “HEQKICAKYGSDVIFADNIDGGDSDEDERSTSCTCGKLRAIVARVMVAIGGDL” stands 48400. Regarding “NPMTFMGSTQRLAAIRNLRSNPKFLFVHLPNILSFLCIIVGVVWLLLLPLNEY”, the “transcriptional activation domain activity” value was determined as 33900. Under “VMLNQQILYFCLRILCMHAYAQFRMEDSDIWRMVEKKKHIYNRLIELVYTLCS” stands 46300; under “GASSSAAAAGSSEEAPKKKRGRPPKEKKADESGAETEPAPKRKRGRPPKNPKP”, 21200; under “ILRCYLQYIFALTLVFFWLLYTLTCSISQFSRHLRSWTCWIFYSLYRRILFLG”, 56200. Consider “VALACLLTVLPFLVVLGTFILSLTIYTFFLDRSIMVAFFHPFLHPFFFFSFFV”, for which the “transcriptional activation domain activity” value was 25400.

On to “VGRVTDKSSLVYDWPFDESIERNFSTTATAATGESKFDINDNCNRINSKSYSK”, for which the “transcriptional activation domain activity” value turned out to be 45900.

Turning to “EELWTDVDLYNAQFFFIKLLLHFNDPIYGPNTHELLIVMLGQKGGLYPLWQLL”, the “transcriptional activation domain activity” value was found to be 59700. Next, “MLRCLLSFLLYIYQFKYCNAQVSINVPIDGRQFKFIESFQFLNLPFNVITSTV”: 67900.

As for “DVNTGATSAPLSVGDVRHVAAPLEESGGCTLAMLVDDDGVMRIVVLRVTVDPV”, the “transcriptional activation domain activity” value stood at 35300. “GSHQGKEAKKEEGKKEEGKDKKEEEEGKKGGKKGGKKGGKGGKGKKTGETEAS”: the “transcriptional activation domain activity” value amounted to 38000. “TVGVLILWCWLRLIQKALEKLHVKQIKTGHYGSPPLKNMLLPWLKQTFIFVLA”: the “transcriptional activation domain activity” value was found to be 69100. Next, “SQKNGTSAANALVYGGFSHTVTQHTIKDVSIDGTWLEEEIDGFKSDTLGFHVD”: 72800; “MCARSLFCGYIFFLVLYLLAWLGVFPCPFTLFLLSFLFPIFFFLLCWRLAFAC”: 45800; “EVLLLLMWMFWTKVVKIIPHFLRHPSDFPLVICQILFGYAHSFIKLWALVTFW”: 47200. Regarding “NWYWLATTMYFLYGETVIYYFKHIVLVDKVLLPLATHHRFISFILYVFGFVFF”, the “transcriptional activation domain activity” value was 58300.
